Numbered stars: 1 amine (or outer) side, 2 acyl side, 3 side chain; on linkers, the order of the positions; unused ones are H or OH. Side chains are listed from the residue outwards. Ends that are not written are not given here. * marks the point of attachment. C20 diacid = O=C(O)CCCCCCCCCCCCCCCCCCC(=O)*; C18 diacid = O=C(O)CCCCCCCCCCCCCCCCC(=O)*; γGlu = O=C(O)[C@H](CCC(=O)[*:2])N[*:1]
T1: human amylin 3(a) receptor (human calcitonin receptor co-expressed with RAMP-3) on BHK570/CRE-luc cells (human, UniProt P30988 25-474; O60896 24-148)
T1 sequence (looked up) 1: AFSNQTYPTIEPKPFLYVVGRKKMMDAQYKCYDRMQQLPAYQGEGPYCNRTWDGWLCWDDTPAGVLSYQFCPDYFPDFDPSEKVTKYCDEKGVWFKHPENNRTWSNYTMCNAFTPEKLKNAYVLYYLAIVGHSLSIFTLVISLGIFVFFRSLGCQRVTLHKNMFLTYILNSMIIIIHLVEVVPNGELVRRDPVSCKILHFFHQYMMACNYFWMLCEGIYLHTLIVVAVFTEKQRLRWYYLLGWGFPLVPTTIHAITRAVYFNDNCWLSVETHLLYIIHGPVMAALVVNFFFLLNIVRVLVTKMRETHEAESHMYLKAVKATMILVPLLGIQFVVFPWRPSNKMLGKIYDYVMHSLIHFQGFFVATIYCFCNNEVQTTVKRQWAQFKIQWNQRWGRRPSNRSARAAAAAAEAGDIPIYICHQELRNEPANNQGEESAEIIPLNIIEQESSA
T1 sequence (looked up) 2: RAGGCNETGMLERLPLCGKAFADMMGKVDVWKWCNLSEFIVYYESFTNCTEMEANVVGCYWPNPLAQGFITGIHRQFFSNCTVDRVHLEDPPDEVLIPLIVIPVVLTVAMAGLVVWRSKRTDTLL

T2: human calcitonin receptor on BHK570/CRE-luc cells (human, UniProt P30988 25-474)
T2 sequence (looked up): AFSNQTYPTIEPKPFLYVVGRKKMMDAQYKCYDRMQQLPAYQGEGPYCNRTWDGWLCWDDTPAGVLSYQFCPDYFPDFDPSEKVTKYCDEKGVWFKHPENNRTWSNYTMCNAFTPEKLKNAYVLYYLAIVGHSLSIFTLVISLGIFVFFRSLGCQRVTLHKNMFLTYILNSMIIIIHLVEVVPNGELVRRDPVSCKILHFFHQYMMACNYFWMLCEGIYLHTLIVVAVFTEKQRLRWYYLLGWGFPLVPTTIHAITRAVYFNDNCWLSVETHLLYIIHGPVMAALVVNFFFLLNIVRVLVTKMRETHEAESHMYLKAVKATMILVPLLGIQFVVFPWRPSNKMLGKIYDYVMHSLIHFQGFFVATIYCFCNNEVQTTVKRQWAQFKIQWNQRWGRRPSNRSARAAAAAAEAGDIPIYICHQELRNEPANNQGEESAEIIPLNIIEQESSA


Tests used:
[1] = molecular target: T1, human amylin 3(a) receptor (human …); assay: cell-based or functional assay
[2] = molecular target: T2, human calcitonin receptor on …; assay: cell-based or functional assay

Binder | hAmylin-R funct. EC50 (pM), tested with HSA [1] [pM] | hCTR funct. EC50 (pM), tested with HSA [2] [pM]
{C18 diacid-γGlu}-ASELSTAALGRLSAELHELATYPRTETGSGSP-NH2 (SMILES CC(C)C[C@H](NC(=O)[C@H](C)NC(=O)[C@H](C)NC(=O)[C@@H](NC(=O)[C@H](CO)NC(=O)[C@H](CC(C)C)NC(=O)[C@H](CCC(=O)O)NC(=O)[C@H](CO)NC(=O)[C@H](C)NC(=O)CC[C@H](NC(=O)CCCCCCCCCCCCCCCCC(=O)O)C(=O)O)[C@@H](C)O)C(=O)NCC(=O)N[C@@H](CCCNC(=N)N)C(=O)N[C@@H](CC(C)C)C(=O)N[C@@H](CO)C(=O)N[C@@H](C)C(=O)N[C@@H](CCC(=O)O)C(=O)N[C@@H](CC(C)C)C(=O)N[C@@H](Cc1c[nH]cn1)C(=O)N[C@@H](CCC(=O)O)C(=O)N[C@@H](CC(C)C)C(=O)N[C@@H](C)C(=O)N[C@H](C(=O)N[C@@H](Cc1ccc(O)cc1)C(=O)N1CCC[C@H]1C(=O)N[C@@H](CCCNC(=N)N)C(=O)N[C@H](C(=O)N[C@@H](CCC(=O)O)C(=O)N[C@H](C(=O)NCC(=O)N[C@@H](CO)C(=O)NCC(=O)N[C@@H](CO)C(=O)N1CCC[C@H]1C(N)=O)[C@@H](C)O)[C@@H](C)O)[C@@H](C)O) [[N-terminal(C18 diacid-gGlu), des1, 23Y, 30S, 31G]mimylin] | 24 | 15
{C20 diacid-γGlu}-ASELSTAALGRLSAELHELATLPRTETGSGSY-NH2 (SMILES CC(C)C[C@H](NC(=O)[C@H](C)NC(=O)[C@H](C)NC(=O)[C@@H](NC(=O)[C@H](CO)NC(=O)[C@H](CC(C)C)NC(=O)[C@H](CCC(=O)O)NC(=O)[C@H](CO)NC(=O)[C@H](C)NC(=O)CC[C@H](NC(=O)CCCCCCCCCCCCCCCCCCC(=O)O)C(=O)O)[C@@H](C)O)C(=O)NCC(=O)N[C@@H](CCCNC(=N)N)C(=O)N[C@@H](CC(C)C)C(=O)N[C@@H](CO)C(=O)N[C@@H](C)C(=O)N[C@@H](CCC(=O)O)C(=O)N[C@@H](CC(C)C)C(=O)N[C@@H](Cc1c[nH]cn1)C(=O)N[C@@H](CCC(=O)O)C(=O)N[C@@H](CC(C)C)C(=O)N[C@@H](C)C(=O)N[C@H](C(=O)N[C@@H](CC(C)C)C(=O)N1CCC[C@H]1C(=O)N[C@@H](CCCNC(=N)N)C(=O)N[C@H](C(=O)N[C@@H](CCC(=O)O)C(=O)N[C@H](C(=O)NCC(=O)N[C@@H](CO)C(=O)NCC(=O)N[C@@H](CO)C(=O)N[C@@H](Cc1ccc(O)cc1)C(N)=O)[C@@H](C)O)[C@@H](C)O)[C@@H](C)O) [[N-terminal(C20 diacid-gGlu), des1, 30S, 31G, 33Y]mimylin] | 62 | 49
{C20 diacid-γGlu}-ASELSTAALGRLSAELHELATYPRTETGSGSP-NH2 (SMILES CC(C)C[C@H](NC(=O)[C@H](C)NC(=O)[C@H](C)NC(=O)[C@@H](NC(=O)[C@H](CO)NC(=O)[C@H](CC(C)C)NC(=O)[C@H](CCC(=O)O)NC(=O)[C@H](CO)NC(=O)[C@H](C)NC(=O)CC[C@H](NC(=O)CCCCCCCCCCCCCCCCCCC(=O)O)C(=O)O)[C@@H](C)O)C(=O)NCC(=O)N[C@@H](CCCNC(=N)N)C(=O)N[C@@H](CC(C)C)C(=O)N[C@@H](CO)C(=O)N[C@@H](C)C(=O)N[C@@H](CCC(=O)O)C(=O)N[C@@H](CC(C)C)C(=O)N[C@@H](Cc1c[nH]cn1)C(=O)N[C@@H](CCC(=O)O)C(=O)N[C@@H](CC(C)C)C(=O)N[C@@H](C)C(=O)N[C@H](C(=O)N[C@@H](Cc1ccc(O)cc1)C(=O)N1CCC[C@H]1C(=O)N[C@@H](CCCNC(=N)N)C(=O)N[C@H](C(=O)N[C@@H](CCC(=O)O)C(=O)N[C@H](C(=O)NCC(=O)N[C@@H](CO)C(=O)NCC(=O)N[C@@H](CO)C(=O)N1CCC[C@H]1C(N)=O)[C@@H](C)O)[C@@H](C)O)[C@@H](C)O) [[N-terminal(C20 diacid-gGlu), des1, 23Y, 30S, 31G]mimylin] | 67 | 24
{C20 diacid-γGlu}-AASELSTAALGRLSAELHELATYPRTETGSGSP-NH2 (SMILES CC(C)C[C@H](NC(=O)[C@H](C)NC(=O)[C@H](C)NC(=O)[C@@H](NC(=O)[C@H](CO)NC(=O)[C@H](CC(C)C)NC(=O)[C@H](CCC(=O)O)NC(=O)[C@H](CO)NC(=O)[C@H](C)NC(=O)[C@H](C)NC(=O)CC[C@H](NC(=O)CCCCCCCCCCCCCCCCCCC(=O)O)C(=O)O)[C@@H](C)O)C(=O)NCC(=O)N[C@@H](CCCNC(=N)N)C(=O)N[C@@H](CC(C)C)C(=O)N[C@@H](CO)C(=O)N[C@@H](C)C(=O)N[C@@H](CCC(=O)O)C(=O)N[C@@H](CC(C)C)C(=O)N[C@@H](Cc1c[nH]cn1)C(=O)N[C@@H](CCC(=O)O)C(=O)N[C@@H](CC(C)C)C(=O)N[C@@H](C)C(=O)N[C@H](C(=O)N[C@@H](Cc1ccc(O)cc1)C(=O)N1CCC[C@H]1C(=O)N[C@@H](CCCNC(=N)N)C(=O)N[C@H](C(=O)N[C@@H](CCC(=O)O)C(=O)N[C@H](C(=O)NCC(=O)N[C@@H](CO)C(=O)NCC(=O)N[C@@H](CO)C(=O)N1CCC[C@H]1C(N)=O)[C@@H](C)O)[C@@H](C)O)[C@@H](C)O) [[N-terminal(C20 diacid-gGlu), 1A, 23Y, 30S, 31G]mimylin] | 82 | 51

Continued, values first:

hAmylin-R funct. EC50 (pM), tested with HSA [1] [pM] | hCTR funct. EC50 (pM), tested with HSA [2] [pM] | Binder
49 | 28 | ASELSTAALGRLSAELHK([γGlu-C20 diacid])LATLPRTETGSGSP-NH2 (N-terminus assumed; SMILES CC(C)C[C@H](NC(=O)[C@H](C)NC(=O)[C@H](C)NC(=O)[C@@H](NC(=O)[C@H](CO)NC(=O)[C@H](CC(C)C)NC(=O)[C@H](CCC(=O)O)NC(=O)[C@H](CO)NC(=O)[C@H](C)N)[C@@H](C)O)C(=O)NCC(=O)N[C@@H](CCCNC(=N)N)C(=O)N[C@@H](CC(C)C)C(=O)N[C@@H](CO)C(=O)N[C@@H](C)C(=O)N[C@@H](CCC(=O)O)C(=O)N[C@@H](CC(C)C)C(=O)N[C@@H](Cc1c[nH]cn1)C(=O)N[C@@H](CCCCNC(=O)CC[C@H](NC(=O)CCCCCCCCCCCCCCCCCCC(=O)O)C(=O)O)C(=O)N[C@@H](CC(C)C)C(=O)N[C@@H](C)C(=O)N[C@H](C(=O)N[C@@H](CC(C)C)C(=O)N1CCC[C@H]1C(=O)N[C@@H](CCCNC(=N)N)C(=O)N[C@H](C(=O)N[C@@H](CCC(=O)O)C(=O)N[C@H](C(=O)NCC(=O)N[C@@H](CO)C(=O)NCC(=O)N[C@@H](CO)C(=O)N1CCC[C@H]1C(N)=O)[C@@H](C)O)[C@@H](C)O)[C@@H](C)O) [[des1, 19K(C20 diacid-gGlu), 30S, 31G]mimylin]
57 | 48 | ASELSTAALGRLSAK([γGlu-C20 diacid])LHELATLPRTETGSGSP-NH2 (N-terminus assumed; SMILES CC(C)C[C@H](NC(=O)[C@H](C)NC(=O)[C@H](C)NC(=O)[C@@H](NC(=O)[C@H](CO)NC(=O)[C@H](CC(C)C)NC(=O)[C@H](CCC(=O)O)NC(=O)[C@H](CO)NC(=O)[C@H](C)N)[C@@H](C)O)C(=O)NCC(=O)N[C@@H](CCCNC(=N)N)C(=O)N[C@@H](CC(C)C)C(=O)N[C@@H](CO)C(=O)N[C@@H](C)C(=O)N[C@@H](CCCCNC(=O)CC[C@H](NC(=O)CCCCCCCCCCCCCCCCCCC(=O)O)C(=O)O)C(=O)N[C@@H](CC(C)C)C(=O)N[C@@H](Cc1c[nH]cn1)C(=O)N[C@@H](CCC(=O)O)C(=O)N[C@@H](CC(C)C)C(=O)N[C@@H](C)C(=O)N[C@H](C(=O)N[C@@H](CC(C)C)C(=O)N1CCC[C@H]1C(=O)N[C@@H](CCCNC(=N)N)C(=O)N[C@H](C(=O)N[C@@H](CCC(=O)O)C(=O)N[C@H](C(=O)NCC(=O)N[C@@H](CO)C(=O)NCC(=O)N[C@@H](CO)C(=O)N1CCC[C@H]1C(N)=O)[C@@H](C)O)[C@@H](C)O)[C@@H](C)O) [[des1, 16K(C20 diacid-gGlu), 30S, 31G]mimylin]

Reference: patent publication US20160272683A1 (Novo Nordisk, published 2016)
